# From article PMC2323298 (PLoS Pathogens, 2007)
# Experiments:
# [1] = target: T1, AMA1 (apical membrane antigen 1) domains I+II (Plasmodium falciparum 3D7, UniProt Q7KQK5); test: crystal structure; AMA1 domains I+II and 1F9 Fab mixed (Fab in slight excess); 20 mM MES pH 6.0, 10 mM MnCl2, 6% PEG 3350, hanging drops; two crystal forms; conditions: both partners purified
# T1 construct: also called AMA1 domains I+II
# [2] = target: T2, Full-length 3D7 AMA1 ectodomain (Plasmodium falciparum 3D7, UniProt Q7KQK5); test: ELISA; competition ELISA: 100 ul of 0.3 ug/ml full-length AMA1 ectodomain immobilised on plastic; dilutions of human plasma added, followed by 10 ul of 3.0 ug/ml mAb; peroxidase-conjugated anti-mouse antibodies; conditions: both partners purified
# T2 construct: also called recombinant full-length 3D7 AMA1 ectodomain; full-length recombinant AMA1
# [3] = target: T3, 3D7 AMA1 domain I expressed on M13 phage (Plasmodium falciparum 3D7, UniProt Q7KQK5); test: ELISA; conditions: one partner purified
# T3 construct: also called 3D7 domain I; domain I AMA1
Binder,binding result [1],binding result [2],binding result [3]
"1F9 Fab fragment (Fab, V domains shown, also called Fab 1F9) VH: EVQLQQSGAELLRPGASVKLSCIVSGFKIKDTSMHWVKQRPEQGLEWIGRIDPANDNSEYDPKFQGKATITADTSSNTAYLQLSSLTSEDTAVYYCTLSHFWGQGTTLTVSS VL: SIVMTQTPKFLPVSAGDRVTIICKASQSVSNDVVWYQQKPGQSPKLLIYYASIRYTGVPDRFTGSGYGTDFTFTISTVQVEDLAVYFCQQGFSSPRTFGGGTKLEIN",binds,,
"Mouse monoclonal antibody 1F9 (isotype IgG2b with a Kappa light chain) (antibody, V domains shown, also called mAb 1F9) VH: EVQLQQSGAELLRPGASVKLSCIVSGFKIKDTSMHWVKQRPEQGLEWIGRIDPANDNSEYDPKFQGKATITADTSSNTAYLQLSSLTSEDTAVYYCTLSHFWGQGTTLTVSS VL: SIVMTQTPKFLPVSAGDRVTIICKASQSVSNDVVWYQQKPGQSPKLLIYYASIRYTGVPDRFTGSGYGTDFTFTISTVQVEDLAVYFCQQGFSSPRTFGGGTKLEIN",,binds,binds
